We go through ten proteins from publication PMC5717138.

A short description of series [1]: supF shuttle vector assay, complemented XP30RO. Particulars: glycan lost; control: wild type.
The nature of series [2]: unreplicated CPDs in ssDNA, complemented XP30RO, 4 h post-UV. The following applies: glycan lost; control: wild type.
The nature of series [3]: chromatin fractionation, chromatin-bound Polη 24 h post-UV. Particulars: glycan lost; control: wild type.
Series [4] can be described thus: quantitative MS of di-Gly peptides. Particulars: glycan lost; control: wild type.
The nature of series [5]: GFP-Polη foci, U2OS, 24 h post-UVC. The following applies: glycan lost; control: wild type.
Series [6] in a line: denaturing Flag IP, anti-HA-Ub and anti-K48-Ub blot. The following applies: glycan lost; control: wild type.
A short description of series [7]: DNA fiber assay after cisplatin. Particulars: glycan lost; control: wild type.
Series [8] can be described thus: GFP-Polη foci, U2OS, 34 and 46 h after cisplatin removal. The following applies: glycan lost; control: wild type.
A short description of series [9]: DNA fiber assay, no cisplatin. The following applies: glycan lost; control: wild type.
Series [10] can be described thus: chromatin-fraction IP, anti-ubiquitin/K48 blot. The following applies: glycan lost; control: wild type.
The nature of series [11]: GFP-Polη foci, U2OS, 24 h after cisplatin. Particulars: glycan lost; control: wild type.
Series [12] can be described thus: RPA foci, complemented XP30RO, 4 and 24 h post-UV. The following applies: glycan lost; control: wild type.
Series [13] is described as follows: RPA2 foci-positive cells, 24 h recovery after cisplatin. The following applies: glycan lost; control: wild type.
A short description of series [14]: GFP-Polη foci, U2OS, 8 h post-UVC. The following applies: glycan lost; control: wild type.
Series [15] can be described thus: in vitro ubiquitination of E. coli-purified His-Polη. Particulars: control: WT His-Polη without OGT co-expression.

B1: DNA polymerase η (Polη): T457A (protein)
parent chain: MATGQDRVVALVDMDCFFVQVEQRQNPHLRNKPCAVVQYKSWKGGGIIAVSYEARAFGVTRSMWADDAKKLCPDLLLAQVRESRGKANLTKYREASVEVMEIMSRFAVIERASIDEAYVDLTSAVQERLQKLQGQPISADLLPSTYIEGLPQGPTTAEETVQKEGMRKQGLFQWLDSLQIDNLTSPDLQLTVGAVIVEEMRAAIERETGFQCSAGISHNKVLAKLACGLNKPNRQTLVSHGSVPQLFSQMPIRKIRSLGGKLGASVIEILGIEYMGELTQFTESQLQSHFGEKNGSWLYAMCRGIEHDPVKPRQLPKTIGCSKNFPGKTALATREQVQWWLLQLAQELEERLTKDRNDNDRVATQLVVSIRVQGDKRLSSLRRCCALTRYDAHKMSHDAFTVIKNCNTSGIQTEWSPPLTMLFLCATKFSASAPSSSTDITSFLSSDPSSLPKVPVTSSEAKTQGSGPAVTATKKATTSLESFFQKAAERQKVKEASLSSLTAPTQAPMSNSPSKPSLPFQTSQSTGTEPFFKQKSLLLKQKQLNNSSVSSPQQNPWSNCKALPNSLPTEYPGCVPVCEGVSKLEESSKATPAEMDLAHNSQSMHASSASKSVLEVTQKATPNPSLLAAEDQVPCEKCGSLVPVWDMPEHMDYHFALELQKSFLQPHSSNPQVVSAVSHQGKRNPKSPLACTNKRPRPEGMQTLESFFKPLTH
Consider B1, for which the “other: UV-induced mutation frequency” value in series [1] is listed as “increases”. Moreover, the “other: CPD lesion bypass” value in series [2] and in [12] was “no change” each time. Further, the localisation_or_trafficking entry in [3] is “increases”; in series [5], “increases”; in series [8], “increases”; in series [11] it was “no change”; in series [14] it was “no change”. In addition, in [4], the “other: site-specific ubiquitination” value is “decreases”. Also, the “other: polyubiquitination” value in [6] and in series [10] was “decreases” throughout. Besides, the “other: replication fork progression, other: median fiber length” value in series [7] was “decreases, 8.62 vs 10.65”; in series [9], “no change, 12.07 vs 12.17”. In addition, in series [13], the “other: translesion synthesis after cisplatin, other: % cells with >10 RPA2 foci” value is “increases, 33.4 vs 12.6”.

B2: DNA polymerase η (Polη): Polη-5A (protein)
parent chain: B1 parent chain
In the case of B2, the localisation_or_trafficking entry in series [5] was “increases”; in series [14] it was “no change”.

B3: DNA polymerase η (Polη): T457E (protein)
parent chain: B1 parent chain
As to B3, the localisation_or_trafficking result in series [5] is “increases”.

B4: DNA polymerase η (Polη): T457A without OGT (protein)
parent chain: B1 parent chain
As to B4, in [15] (glycan lost), the “other: polyubiquitination” value was “no change”.

B5: DNA polymerase η (Polη): GST-OGT co-expression (WT) (protein)
parent chain: B1 parent chain
For the protein B5, the “other: polyubiquitination” value in series [15] (glycan gained) is “increases”.

B6: DNA polymerase η (Polη): T457A with GST-OGT co-expression (protein)
parent chain: B1 parent chain
Take B6: the “other: polyubiquitination” value in [15] (glycan lost) is recorded as “no change”.

B7: DNA polymerase η (Polη): 3A (protein)
parent chain: B1 parent chain
Turning to B7, the “other: polyubiquitination” value in series [6] is on record as “decreases”.

B8: DNA polymerase η (Polη): T457D (protein)
parent chain: B1 parent chain
For the protein B8, in series [5], the localisation_or_trafficking entry is reported as “increases”.

B9: DNA polymerase η (Polη): Polη-3A (protein)
parent chain: B1 parent chain
Turning to B9, the localisation_or_trafficking result in [5] was “increases”; in series [14] it was “no change”.

B10: DNA polymerase η (Polη): 5A (protein)
parent chain: B1 parent chain
On to B10, for which the “other: polyubiquitination” value in series [6] is on record as “decreases”.
